Laboratory results reported in patent US20060121047A1, “Use of hmgb polypetides for increasing immune responses” (priority 2002, published 2006).
Marks after values point to notes of the source that are not given here.

What was measured:
[1] = tested on: Murine macrophage-like RAW 264.7 cells; assay: TNF release from RAW 264.7 cells (L929 cytotoxicity bioassay); assay type: cell-based; settings: for TNF release, dose dependence: B box 0-10 μg/ml, 8 hours (FIG. 2A)
Description: Murine macrophage-like RAW 264.7 cells (American Type Culture Collection, Rockville, Md.) were cultured in RPMI 1640 medium (Life Technologies, Grand Island N.Y.) supplemented with 10% fetal bovine serum (Gemini, Catabasas, Calif.), penicillin and streptomycin (Life Technologies) and were used at 90% confluence in serum-free Opti-MEM I medium (Life Technologies, Grand Island, N.Y.). […] Polymyxin B was not used in experiments of synthetic peptide studies.
TNF release was measured by a standard murine fibroblast L929 (ATCC, American Type Culture Collection, Rockville, Md.) cytotoxicity bioassay (Bianchi et al., Journal of Experimental Medicine 183:927-936, 1996) with the minimum detectable concentration of 30 pg/ml. Recombinant mouse TNF was obtained from R&D system Inc., (Minneapolis, MN). Murine fibroblast L929 cells (ATCC) were cultured in DMEM (Life Technologies, Grand Island, N.Y.) supplemented with 10% fetal bovine serum (Gemini, Catabasas, Calif.), penicillin (50 units/ml) and streptomycin (50 μg/ml) (Life Technologies) in a humidified incubator with 5% CO2.
The effect of the mutants on TNF release from Murine macrophage-like RAW 264.7 cells (ATCC) was carried out as follows. RAW 264.7 cells were cultured in RPMI 1640 medium (Life Technologies, Grand Island N.Y.) supplemented with 10% fetal bovine serum (Gemini, Catabasas, Calif.), penicillin and streptomycin (Life Technologies). Polymyxin (Sigma, St. Louis, Mo.) was added at 100 units/ml to suppress the activity of any contaminating LPS. Cells were incubated with 1 μg/ml of full length (wild-type) HMGB1 and each HMGB1 mutant protein in Opti-MEM I medium for 8 hours, and conditioned supernatants (containing TNF which had been released from the cells) were collected and TNF released from the cells was measured by a standard murine fibroblast L929 (ATCC) cytotoxicity bioassay (Bianchi et al., supra) with the minimum detectable concentration of 30 pg/ml. Recombinant mouse TNF was obtained from R & D Systems Inc., (Minneapolis, Minn.) and used as control in these experiments. Data in FIG. 1 are all presented as mean+SEM unless otherwise indicated. (=6−10).
To further examine the effect of HMGB1 B box on cytokine production, varying amounts of HMGB1 B box were evaluated for the effects on TNF, IL-1B, and IL-6 production in murine macrophage-like RAW 264.7 cells. Conditioned media were harvested and measured for TNF, IL-1β and IL-6 levels. TNF levels were measured as described herein, and IL-1β and IL-6 levels were measured using the mouse IL-1β and IL-6 enzyme-linked immunosorbent assay (ELISA) kits (R&D System Inc., Minneapolis, 1) and N>5 for all experiments.
The kinetics of B box-induced TNF release was also examined. TNF release and TNF mRNA expression was measured in RAW 264.7 cells induced by B box polypeptide or GST tag polypeptide only used as a control (vector) (10 μg/ml) for 0 to 48 hours. Supernatants were analyzed for TNF protein levels by an L929 cytotoxicity assay (N=3-5) as described herein. For mRNA measurement, cells were plated in 100 mm plate and treated in Opti-MEM I medium containing B box polypeptide or the vector alone for 0, 4, 8, or 24 hours, as indicated in FIG. 2D. The vector only sample was assayed at the 4 hour time point. Cells were scraped off the plate and total RNA was isolated by RNAzol B method in accordance with the manufacturer's instructions (Tel-Test “B”, Inc., Friendswood, Tex.). TNF (287 bp) was measured by RNase protection assay (Ambion, Austin, Tex.). Equal loading and the integrity of RNA was verified by ethidium bromide staining of the RNA sample on agarose-formaldehyde gel. […] TNF mRNA expression was maximal at 4 hours and decreased at 8 and 24 hours. […] A similar study was carried out measuring TNF protein released from RAW 264.7 cells 0, 4, 8, 24, 32 or 48 hours after administration of B box or vector only (GST tag), using the L929 cytotoxicity assay described herein. […] Data are representative of three separate experiments. […]

[2] = tested on: D-galactosamine-sensitized Balb/c mice; assay: Toxicity (survival) in D-galactosamine-sensitized Balb/c mice; assay type: in vivo; settings: for Alive/total: survival monitored up to 7 days
Source text: Male 6-8 week old Balb/c and C3H/HeJ mice were purchased from Harlen Sprague-Dawley (Indianapolis, Ind.) and were allowed to acclimate for 7 days before use in experiments. All animals were housed in the North Shore University Hospital Animal Facility under standard temperature, and a light and dark cycle.
The D-galactosamine-sensitized model has been described previously (Galanos et al., Proc Natl. Acad. Sci. USA 76: 5939-5943, 1979; and Lehmann et al., J. Exp. Med. 165: 657663, 1997). Mice were injected intraperitoneally with 20 mg D-galactosamine-HCL (Sigma)/mouse (in 200 μl PBS) and 0.1 or 1 mg of either HMGB1 B box or vector protein (in 200 μl PBS).
To investigate whether the HMGB1 B box has cytokine activity in vivo, we administered HMGB1 B box protein to unanesthetized Balb/c mice sensitized with D-galactosamine (D-gal), a model that is widely used to study cytokine toxicity (Galanos et al., supra). Briefly, mice (20-25 gram, male, Harlan Sprague-Dawley, Indianapolis, IN) were intraperitoneally injected with D-gal (20 mg) (Sigma) and B box (0.1 mg/ml/mouse or 1 mg/ml/mouse) or GST tag (vector; 0.1 mg/ml/mouse or 1 mg/ml/mouse), as indicated in Table 1. […]

B1: B box: Recombinant GST-system human HMGB1 mutant containing only the B box, 74 amino acids, SEQ ID NO: 20 (protein, listed as Homo sapiens)
chain: FKDPNAPKRLPSAFFLFCSEYRPKIKGEHPGLSIGDVAKKLGEMWNNTAADDKQPYEKKAAKLKEKYEKDIAAY
modifications: GST system
In the case of B1, the TNF release ([1]; 1 μg/ml protein, 8 hours, RAW 264.7 cells (FIG. 1)) is reported as “potent activator of monocyte TNF release”, the “time of maximum TNF protein release” value ([1]; 10 μg/ml) is reported as ≤ 8 h and the “TNF protein expression/release versus medium only” value ([1]; 10 μg/ml, 0 to 48 hours) is reported as “stimulated TNF protein expression”. The “TNF release, dose dependence” value [1] was “increased with increased amounts of B box”, the “TNF release, dose dependence” value ([1]; listed as HMGB1 B box) was “dose-dependently stimulated release” and the Alive/total ([2]; 0.1 mg/mouse i.p. with D-gal 20 mg) was 6/6. The Alive/total ([2]; 1 mg/mouse i.p. with D-gal 20 mg) was 2/8*, the lethality ([2]; 0.1 or 1 mg/mouse i.p.) was “lethal to D-galactosamine-sensitized mice in a dose-dependent manner” and the time of death ([2]; instances in which death occurred) was ≤ 12 h. For the same molecule, the “late deaths among survivors” value ([2]; survivors followed for 2 weeks) was “no later deaths from B box toxicity were observed”.
